The target of this assay is IL-1 receptor (human) (UniProt P14778). In words: cell-based or functional assay.
UniProt P14778, sequence (P14778 18-569): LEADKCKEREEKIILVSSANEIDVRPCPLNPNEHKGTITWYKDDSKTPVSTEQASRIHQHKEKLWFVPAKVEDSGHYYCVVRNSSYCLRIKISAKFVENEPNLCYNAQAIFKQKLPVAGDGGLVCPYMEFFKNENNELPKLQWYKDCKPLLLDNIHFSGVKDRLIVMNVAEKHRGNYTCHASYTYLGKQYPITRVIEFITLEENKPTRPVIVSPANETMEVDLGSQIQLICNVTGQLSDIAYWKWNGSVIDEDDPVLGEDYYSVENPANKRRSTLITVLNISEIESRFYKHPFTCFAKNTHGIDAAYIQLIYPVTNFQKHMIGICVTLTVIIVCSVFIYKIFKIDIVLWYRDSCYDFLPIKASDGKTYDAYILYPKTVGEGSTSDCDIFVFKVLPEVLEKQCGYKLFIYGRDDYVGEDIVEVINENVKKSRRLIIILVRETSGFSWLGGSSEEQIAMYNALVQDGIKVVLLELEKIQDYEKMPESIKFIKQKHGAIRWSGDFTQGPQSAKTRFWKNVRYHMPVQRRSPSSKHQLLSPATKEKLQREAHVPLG

In the case of “Kineret® (anakinra) (from UniProt P18510 26-177) (ligand)”, the IC50, inhibition of IL-1β induced production of IL-8 in human whole blood (100 pM rhIL-1β) was 53.4 pM.

Source of the values: patent US20080292640A1.
